Data: patent publication US9260728B2, “Terpene synthases from Santalum” (UNIVERSITY OF BRITISH COLUMBIA, priority 2009, dated 2016)

Key:
Assay type in all cases: biochemical
[1] = SaSSy enzyme assay with GPP, GC-MS product analysis; conditions: GPP as substrate, Mn^2+
Method: Enzyme assays for both recombinant isoenzyme proteins P143 and S143 were done in duplicate using GC vials as per O'Maille, P. E., et al. (“A single-vial analytical and quantitative gas chromatography-mass spectrometry assay for terpene synthases,” Anal. Biochem. 335:210-217 (2004)). […] 20 μL of substrates FPP and GPP (˜1 mg/mL) were added and the mixture gently shaken. Final enzyme concentration was 0.3 mg/mL. Vials were overlaid with 500 μL of pentane to trap volatile products and incubated at 30° C. for 2 h.
The product mixture of the SaSSy enzyme was analysed on an Agilent 6890 GC with a 5973 MSD using helium as carrier gas. Peak identification was done using an HP5-MS capillary column (30 m, 0.25 mm ID, […]). Injector temperature was 240° C., detector temperature was set at 250° C., injection volume was 1 μL and column flow rate was 1 mL/min. Oven temperature program was as follows: oven program was held for 1 min at 40° C., then ramped at 7.5° C./min to 250° C. and held. All mass spectra were detected at 70 eV in multiple ion scan mode. […]

[2] = Steady-state enzyme kinetic assays
Method: For determination of steady-state enzyme kinetic constants, conditions were as described previously except the enzyme concentration was kept at 10 nM. Substrate concentrations ranged from 1 uM to 100 uM, and reactions were incubated at 30° C. for exactly 5 mins. Reactions were quenched by the addition of 500 μL 0.5 M EDTA, pH 8.0 and vortexed as above.
(§1) GC-FID was performed on a Shimadzu GC2010 with a 30 m 0.25 mm ID, 0.25 μm film DB-WAX column with He as the carrier gas. Splitless injection (2 μL) was used for all analyses. Conditions were as follows: injector 200° C., detector 250° C., column flow rate 1 mL/min. Oven program: 40° C. for 3 min, then 8° C./min to 180° C., held 5 min, then 10° C./min to 220° C., held 10 min. Needle height was adjusted to only draw from the upper organic layer of all sample vials. GC-MS was performed on a Shimadzu GC2010 with the same DB-WAX column and using He as the carrier gas. Conditions were as follows: injector 200° C., MS interface 240° C., ion source 200° C. Oven program: 40° C. for 3 min, then 8° C./min to 180° C., held 5 min, then 10° C./min to 220° C., held 10 min. Solvent cut time was set to 5 min. For product identification, total ion monitoring was used, scanning from m/z 45 to m/z 300. For kinetic assays, single ion monitoring of the sesquiterpene base ions m/z 91, 93 and 94 were used. Likewise monoterpene base ions (m/z 69, 71 and 93) were monitored. An internal standard (isobutyl benzene, 30 μM) was added to the hexane used to overlay each reaction. Detector response factors were calculated based on the santalene standard prepared earlier and used to determine the product concentrations for kinetic analysis.

[3] = SaSSy enzyme assay with FPP, GC-MS product analysis
Method: Enzyme assays for both recombinant isoenzyme proteins P143 and S143 were done in duplicate using GC vials as per O'Maille, P. E., et al. (“A single-vial analytical and quantitative gas chromatography-mass spectrometry assay for terpene synthases,” Anal. Biochem. 335:210-217 (2004)). For each assay, 20 μL of protein (8 mg/mL) was added to 450 μL of reaction buffer containing 25 mM HEPES, 10% glycerol, 5 mM DTT and 10 mM of Mg^2+. 20 μL of substrates FPP and GPP (˜1 mg/mL) were added and the mixture gently shaken. Final enzyme concentration was 0.3 mg/mL. Vials were overlaid with 500 μL of pentane to trap volatile products and incubated at 30° C. for 2 h.
The product mixture of the SaSSy enzyme was analysed on an Agilent 6890 GC with a 5973 MSD using helium as carrier gas. Peak identification was done using an HP5-MS capillary column (30 m, 0.25 mm ID, […]). Injector temperature was 240° C., detector temperature was set at 250° C., injection volume was 1 μL and column flow rate was 1 mL/min. Oven temperature program was as follows: oven program was held for 1 min at 40° C., then ramped at 7.5° C./min to 250° C. and held. All mass spectra were detected at 70 eV in multiple ion scan mode.
The identities of products from SaSSy incubations were confirmed by comparison of mass spectra retention times to authentic sandalwood oil in the NIST 2005 library, see publications by Adams, R. P. (“Identification of essential oil components by gas chromatography/mass spectrometry,” Allured Publishing Corporation, Carol Stream, Ill. (1995)) and MassFinder (www.massfinder.com).
The mass spectrum of the four compounds produced by the SaSSy enzyme (shown in FIG. 2A) are the same as those of natural β-santalene produced in sandalwood trees (see Adams (1995), cited above, for comparison profiles).

[4] = GC-FID determination of reaction products of terpene synthases from FPP with magnesium or manganese
Method: Enzyme assays for all recombinant proteins were done in triplicate using the GC vial method described by O'Maille et al. (Anal. Biochem. 335:[…] (2004). For enzyme assays where only product identification was needed, 10 μg of protein was used in a final volume of 500 μL of reaction buffer (25 mM HEPES, 10% glycerol, 5 mM DTT and 10 mM of either Mg^2+ or Mn^2+. Substrates (FPP and GPP) were added to a final reaction concentration of 100 μM. Vials were overlaid with 500 μL of hexane to trap volatile products and incubated at 30° C. for 2 h. Mixtures were vortexed for 1 min to extract all volatiles and the vials were centrifuged to separate the organic layer.
Product mixtures were analysed by GC-MS in scan mode for product identification. A standard containing the three santalenes and α-trans-bergamotene was prepared by flash chromatography of 2 mL of neat S. album oil over silica and eluted in hexane. A final yield of 25 mg was resuspended in EtOAc and purity was confirmed by GC-FID with conditions described below. All mass spectra were compared to the NIST 2005 library and the literature. Retention indices were determined for all compounds using an n-alkane standard and compared to the literature (R. P. Adams, “Identification of essential oil components by gas chromatography/mass spectrometry,” Allured Publishing Corporation, Carol Stream, Ill. (1995)).
as §1

[5] = as above; remark: listed apart in the source

epi-β-santalene in product mixture ([3]; FPP, Mg^2+ buffer): 4.3%
α-santalene in product mixture ([3]; FPP, Mg^2+ buffer): 34.7%
α-trans-bergamotene in product mixture ([3]; FPP, Mg^2+ buffer): 11.1%
β-santalene in product mixture ([3]; FPP, Mg^2+ buffer): 41.3%
Relative % composition in oil produced by enzyme: E-α-bergamotol ([3]; four major components only): 12.1%
Relative % composition in oil produced by enzyme: epi-β-santalol ([3]; four major components only): 4.7%
Relative % composition in oil produced by enzyme: α-santalol ([3]; four major components only): 38.0%
Relative % composition in oil produced by enzyme: β-santalol ([3]; four major components only): 45.2%
Relative % composition in oil produced by enzyme: E-α-bergamotol ([4]; GC-FID): 16.0%
Relative % composition in oil produced by enzyme: β-santalol ([4]; GC-FID): 31.5%
Relative % composition in oil produced by enzyme: epi-β-santalol [5]: 4.7%
Relative % composition in oil produced by enzyme: α-santalol [5]: 45.3%
B1: SaSSy: santalene synthase (terpene synthase) from Santalum album, gene SEQ ID NO:1, protein SEQ ID NO:2 (protein, listed as Santalum album)
chain: MDSSTATAMTAPFIDPTDHVNLKTDTDASENRRMGNYKPSIWNYDFLQSLATHHNIVEERHLKLAEKLKGQVKFMFGAPMEPLAKLELVDVVQRLGLNHLFETEIKEALFSIYKDGSNGWWFGHLHATSLRFRLLRQCGLFIPQDVFKTFQNKTGEFDMKLCDNVKGLLSLYEASYLGWKGENILDEAKAFTTKCLKSAWENISEKWLAKRVKHALALPLHWRVPRIEARWFIEAYEQEANMNPTLLKLAKLDFNMVQSIHQKEIGELARWWVTTGLDKLAFARNNLLQSYMWSCAIASDPKFKLARETIVEIGSVLTVVDDGYDVYGSIDELDLYTSSVERWSCVEIDKLPNTLKLIFMSMFNKTNEVGLRVQHERGYNSIPTFIKAWVEQCKSYQKEARWFHGGHTPPLEEYSLNGLVSIGFPLLLITGYVAIAENEAALDKVHPLPDLLHYSSLLSRLINDIGTSPDEMARGDNLKSIHCYMNETGASEEVAREHIKGVIEENWKILNQCCFDQSQFQEPFITFNLNSVRGSHFFYEFGDGFGVTDSWTKVDMKSVLIDPIPLGEE
modifications: SaSSy Protein
products formed [1]: a mixture of α-pinene, camphene, limonene and α-terpinolene, along with other monoterpene products
Kcat ([2]; FPP): 0.0112 s⁻¹
Vmax ([2]; assays using FPP): 0.42 µM/min
E-β-farnesene among reaction products (GC-FID) ([4]; FPP Mg, mean): 1.7
Z-β-farnesene among reaction products (GC-FID) ([4]; FPP Mg, mean): 0.8
epi-β-santalene among reaction products (GC-FID) ([4]; FPP Mg, mean): 4.7
α-E-bergamotene among reaction products (GC-FID) ([4]; FPP Mg, mean): 16.0
α-santalene among reaction products (GC-FID) ([4]; FPP Mg, mean): 45.3
β-santalene among reaction products (GC-FID) ([4]; FPP Mg, mean): 31.5
E-β-farnesene among reaction products (GC-FID) ([4]; FPP Mg, replicate 1): 1.7
Z-β-farnesene among reaction products (GC-FID) ([4]; FPP Mg, replicate 1): 0.7
epi-β-santalene among reaction products (GC-FID) ([4]; FPP Mg, replicate 1): 4.6
α-E-bergamotene among reaction products (GC-FID) ([4]; FPP Mg, replicate 1): 16.3
α-santalene among reaction products (GC-FID) ([4]; FPP Mg, replicate 1): 46.4
β-santalene among reaction products (GC-FID) ([4]; FPP Mg, replicate 1): 30.4
E-β-farnesene among reaction products (GC-FID) ([4]; FPP Mg, replicate 2): 1.7
Z-β-farnesene among reaction products (GC-FID) ([4]; FPP Mg, replicate 2): 1.0
epi-β-santalene among reaction products (GC-FID) ([4]; FPP Mg, replicate 2): 5.1
α-E-bergamotene among reaction products (GC-FID) ([4]; FPP Mg, replicate 2): 15.3
α-santalene among reaction products (GC-FID) ([4]; FPP Mg, replicate 2): 43.8
β-santalene among reaction products (GC-FID) ([4]; FPP Mg, replicate 2): 33.1
E-β-farnesene among reaction products (GC-FID) ([4]; FPP Mg, replicate 3): 1.7
Z-β-farnesene among reaction products (GC-FID) ([4]; FPP Mg, replicate 3): 0.7
epi-β-santalene among reaction products (GC-FID) ([4]; FPP Mg, replicate 3): 4.3
α-E-bergamotene among reaction products (GC-FID) ([4]; FPP Mg, replicate 3): 16.4
α-santalene among reaction products (GC-FID) ([4]; FPP Mg, replicate 3): 45.6
β-santalene among reaction products (GC-FID) ([4]; FPP Mg, replicate 3): 31.2
E-β-farnesene among reaction products (GC-FID) ([4]; FPP Mn, mean): 7.6
Z-β-farnesene among reaction products (GC-FID) ([4]; FPP Mn, mean): 0.5
epi-β-santalene among reaction products (GC-FID) ([4]; FPP Mn, mean): 0.7
α-E-bergamotene among reaction products (GC-FID) ([4]; FPP Mn, mean): 74.7
α-santalene among reaction products (GC-FID) ([4]; FPP Mn, mean): 9.8
β-santalene among reaction products (GC-FID) ([4]; FPP Mn, mean): 6.6
E-β-farnesene among reaction products (GC-FID) ([4]; FPP Mn, replicate 1): 7.4
Z-β-farnesene among reaction products (GC-FID) ([4]; FPP Mn, replicate 1): 0.6
epi-β-santalene among reaction products (GC-FID) ([4]; FPP Mn, replicate 1): 0.9
α-E-bergamotene among reaction products (GC-FID) ([4]; FPP Mn, replicate 1): 75.7
α-santalene among reaction products (GC-FID) ([4]; FPP Mn, replicate 1): 9.5
β-santalene among reaction products (GC-FID) ([4]; FPP Mn, replicate 1): 6.0
E-β-farnesene among reaction products (GC-FID) ([4]; FPP Mn, replicate 2): 8.0
Z-β-farnesene among reaction products (GC-FID) ([4]; FPP Mn, replicate 2): 0.5
epi-β-santalene among reaction products (GC-FID) ([4]; FPP Mn, replicate 2): 0.8
α-E-bergamotene among reaction products (GC-FID) ([4]; FPP Mn, replicate 2): 73.4
α-santalene among reaction products (GC-FID) ([4]; FPP Mn, replicate 2): 9.9
β-santalene among reaction products (GC-FID) ([4]; FPP Mn, replicate 2): 7.3
E-β-farnesene among reaction products (GC-FID) ([4]; FPP Mn, replicate 3): 7.5
Z-β-farnesene among reaction products (GC-FID) ([4]; FPP Mn, replicate 3): 0.5
epi-β-santalene among reaction products (GC-FID) ([4]; FPP Mn, replicate 3): 0.5
α-E-bergamotene among reaction products (GC-FID) ([4]; FPP Mn, replicate 3): 74.9
α-santalene among reaction products (GC-FID) ([4]; FPP Mn, replicate 3): 10.1
β-santalene among reaction products (GC-FID) ([4]; FPP Mn, replicate 3): 6.4
